Consider three molecules from paper PMC4538829.

For one data set, the target named is NM23-H2 wild-type (UniProt P22392 1-152). The data set is described as follows: ELISA.
The target of data set [1] is T1, NM23-H2 D54A/D121A/F60A (UniProt P22392 1-152, D54A;F60A;D121A). The data set is described as follows: filter binding.
In data set [2] the target is T2, NM23-H2 D54A/D121A (UniProt P22392 1-152, D54A;D121A). The data set is described as follows: filter binding.
Data set [3] deals with T3, NM23-H2 D121A (UniProt P22392 1-152, D121A). The data set is described as follows: filter binding.
T3 sequence (P22392 whole entry D121A): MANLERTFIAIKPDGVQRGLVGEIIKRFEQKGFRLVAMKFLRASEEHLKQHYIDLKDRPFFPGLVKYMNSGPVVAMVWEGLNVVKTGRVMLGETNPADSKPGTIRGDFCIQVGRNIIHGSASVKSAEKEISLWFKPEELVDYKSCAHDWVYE
Data set [4] addresses T4, NM23-H2 G113F (UniProt P22392 1-152, G113F). The data set is described as follows: filter binding.
The target of data set [5] is T1, NM23-H2 D54A/D121A/F60A. The data set is described as follows: EMSA.
Data set [6] has as its target T2, NM23-H2 D54A/D121A. Briefly: EMSA.
Data set [7] deals with T3, NM23-H2 D121A. Briefly: EMSA.
The target in data set [8] is T4, NM23-H2 G113F. Briefly: EMSA.

T4 sequence (P22392 whole entry G113F): as the sequence (P22392 whole entry D121A) above, with G113F, A121D counted along it
T1 sequence (P22392 whole entry D54A/F60A/D121A): as the sequence (P22392 whole entry D121A) above, with D54A, F60A counted along it
T2 sequence (P22392 whole entry D54A/D121A): as the sequence (P22392 whole entry D121A) above, with D54A counted along it
NM23-H2 wild-type, sequence (P22392 whole entry): as the sequence (P22392 whole entry D121A) above, with A121D counted along it

Molecule AGGGTGGGGAGGGTGGGG (structured_DNA) [c-MYC Pu18 G-quadruplex] yielded an equilibrium dissociation constant (Kd) with NM23-H2 wild-type of 530 ± 18 nM.
Consider TGGGGAGGGTGGGGAGGGTGGGGAAGG (ssDNA) [SS-Pu27 (biotin)], for which the binding result with NM23-H2 D54A/D121A/F60A [1], with NM23-H2 D54A/D121A [2], with NM23-H2 D121A [3] and with NM23-H2 G113F [4] was “no binding” throughout.
Take TGGGGAGGGTGGGGAGGGTGGGGAAGG (ssDNA) [c-MYC Pu27 (FAM)]: the binding result with NM23-H2 D54A/D121A/F60A [5], in the data set with NM23-H2 D54A/D121A [6], with NM23-H2 D121A [7] and with NM23-H2 G113F [8] was “no binding” each time.
